US20180119166

Biological target: T1, MBP fusion protein of the carboxyl-terminal domain of Gle1 (MBP-Gle1C; amino acid residues 244-611)
T1 chain: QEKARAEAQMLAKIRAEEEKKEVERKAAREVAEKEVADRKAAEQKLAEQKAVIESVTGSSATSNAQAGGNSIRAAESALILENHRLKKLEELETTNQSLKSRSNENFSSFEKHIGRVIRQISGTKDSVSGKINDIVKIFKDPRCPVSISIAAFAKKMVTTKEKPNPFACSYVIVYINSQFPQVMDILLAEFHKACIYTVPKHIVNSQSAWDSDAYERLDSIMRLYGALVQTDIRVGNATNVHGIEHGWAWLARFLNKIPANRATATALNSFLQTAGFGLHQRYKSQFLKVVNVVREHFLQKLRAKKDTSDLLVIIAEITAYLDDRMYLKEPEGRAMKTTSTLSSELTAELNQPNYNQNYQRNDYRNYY

B1: 6x-histidine-fused LOS4 (LOS4-His) (protein)
chain: MADTVEKVPTVVESSSSSTVEASNSAEKTEPTTEKKKWGDVEDDDDEEEAVSELNSLSIKEEEKPDSILEEPEDSNIKAVTSGDTPYTSASRFEDLNLSPELMKGLYVEMKFEKPSKIQAISLPMIMTPPHKHLIAQAHNGSGKTTCFVLGMLSRVDPTLREPQALCICPTRELANQNMEVLQKMGKFTGITAELAVPDSTRGAPAATRGAPVSAHVVIGTPGTLKKWMAFKRLGLNHLKILVFDEADHMLATDGFRDDSLKIMKDIGRVNPNFQVLLFSATFNETVKDFVARTVKDPNQLFVKREDLALDSVKQYKVVCPKEQNKIEVIKDQIMELGDIGQTIIFVKTKASAQKVHKALAEMGYDVTSVHGNLTESDRDKIVKEFKECLTQVLIATDVIARGFDQQRVNLVVNYNLPTKYETGEPDYEVYLHRVGRAGRFGRKGAVFNLLLDDGWDKEVMEKIEKYFEANVKEIKSWNSEEEYKSALKEAGLLDEHHHHHH
apparent kcat of LOS4-His with MBP-Gle1C (2 µM MBP-Gle1C, 1 µM LOS4-His): the apparent kcat values for LOS4-His alone and LOS4-His with MBP-Gle1C were calculated to be 0.267 and 0.565 sec^-1, respectively
fold increase in the overall catalytic rate of LOS4 (kcat against LOS4-His alone, 0.267 sec^-1): an approximately two-fold increase in the overall catalytic rate of LOS4 by Gle1
